Source: patent US20180037644A1 (Pfizer, published 2018)
Like-named read-outs stand apart in the source and are kept apart here.

Tests used:
[1] = molecular target: T1, cynomolgus monkey IL-33 (cys mut) (cynomolgus monkey); assay: cell-based or functional assay
T1 chain: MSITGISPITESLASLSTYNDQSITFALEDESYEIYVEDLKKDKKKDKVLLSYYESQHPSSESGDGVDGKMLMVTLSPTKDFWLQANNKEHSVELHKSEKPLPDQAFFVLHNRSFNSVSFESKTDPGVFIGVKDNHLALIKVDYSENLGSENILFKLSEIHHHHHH

[2] = molecular target: T2, human IL-33 (mm2) (human, UniProt O95760 112-270); assay: SPR, IgG captured by anti-human Fc, IL-33 in solution
T2 construct: Variant in which all four cysteine residues are serine; the entry carries an N-terminal Met and a C-terminal His6; Biotinylated in some assays; also called hIL-33 (mm2); huIL-33 (mm2)
T2 chain: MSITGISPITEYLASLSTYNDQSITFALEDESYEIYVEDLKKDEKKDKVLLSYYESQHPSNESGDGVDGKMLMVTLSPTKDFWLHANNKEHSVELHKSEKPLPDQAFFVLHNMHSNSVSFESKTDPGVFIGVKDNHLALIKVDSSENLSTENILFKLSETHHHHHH
Protocol: (§1) Binding to human and cynomolgus monkey IL-33 was measured by surface plasmon resonance using a BIAcore T200 instrument. An anti-human Fc antibody was immobilized on a CM5 chip, and anti-IL-33 antibodies were captured.

[3] = molecular target: T1, cynomolgus monkey IL-33 (cys mut); assay: as above
Protocol: as §1

[4] = molecular target: T2, human IL-33 (mm2); assay: cell-based or functional assay
[5] = molecular target: T3, native human IL-33 from human lung fibroblast (HFL-1) lysate (human, UniProt O95760 1-270, limits assumed); assay: cell-based or functional assay
T3 sequence (looked up): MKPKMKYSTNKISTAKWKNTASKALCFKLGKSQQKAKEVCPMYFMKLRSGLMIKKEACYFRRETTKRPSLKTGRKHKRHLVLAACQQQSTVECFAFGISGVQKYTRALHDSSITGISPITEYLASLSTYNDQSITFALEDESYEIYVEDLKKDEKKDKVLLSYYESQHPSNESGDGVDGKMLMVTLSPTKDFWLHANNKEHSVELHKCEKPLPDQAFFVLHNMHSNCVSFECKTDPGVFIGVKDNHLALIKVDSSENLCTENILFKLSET

[6] = molecular target: T2, human IL-33 (mm2); assay: cell-based or functional assay
[7] = molecular target: T2, human IL-33 (mm2); assay: BIAcore, IgG captured by anti-human Fc, 125 nM IL-33 (mm2)
Protocol: as §1

[8] = molecular target: T2, human IL-33 (mm2); assay: cell-based or functional assay
[9] = molecular target: T1, cynomolgus monkey IL-33 (cys mut); assay: cell-based or functional assay

B1: 14D8 chimera/hu J (antibody, human IgG1, kappa, V domains shown)
VH: EVQLVDSGGDQVQPGRSLKLSCVASGFIFKNYWMTWIRQVPGKGLEWIASITNSGGNTYYPDSVKGRFTISRDNAKDTLYLQMNSLRSEDTATYYCARDRRYNSGSPFAYWGQGTLVTVSS
VL: DIQLTQSPSTLPASLGERVTISCRTSQSINNNLCWYQQKPDGTVKRLIYSTSTLESGVPSRFSGSGSGTDYSLSISSLESQDFAMYYCLQYATYPWTFGQGTKVEIKR
notes: also called 14D8 huJseg
- % inhibition at 20 nM, HEK293 ST2 NFkB [1]: 11%
- Kd [2]: 0.394 nM
- binding result [3]: no binding (tested: 125 nM)
- IC50, HEK293 ST2 NFkB [4]: 2.03 nM
- % inhibition 0.1 nM Ab, HEK293 ST2 NFkB [5]: 61.1%
- % inhibition 1 nM Ab, HEK293 ST2 NFkB [5]: 99.6%
- % inhibition 10 nM Ab, HEK293 ST2 NFkB [5]: 107%

B2: 9B3 chimera (antibody, human IgG1, kappa)
heavy: EVQLVETGGGLVQPGRSLKLSCVASGFTFSNYWMYWIRQAPGMGLEWVSSINNDGGNTYYLDSVKGRFTISRNNAENTVYLQMNSLRSEDTATYYCAKGHYSYSSYSFSYWGQGTLVTVSSASTKGPSVFPLAPSSKSTSGGTAALGCLVKDYFPEPVTVSWNSGALTSGVHTFPAVLQSSGLYSLSSVVTVPSSSLGTQTYICNVNHKPSNTKVDKKVEPKSCDKTHTCPPCPAPEAAGAPSVFLFPPKPKDTLMISRTPEVTCVVVDVSHEDPEVKFNWYVDGVEVHNAKTKPREEQYNSTYRVVSVLTVLHQDWLNGKEYKCKVSNKALPAPIEKTISKAKGQPREPQVYTLPPSREEMTKNQVSLTCLVKGFYPSDIAVEWESNGQPENNYKTTPPVLDSDGSFFLYSKLTVDKSRWQQGNVFSCSVMHEALHNHYTQKSLSLSPGK
light: DIQMTQSPSVLSASVGDRVTLSCKASHNINKHLDWCQQKVGEAPKLLIYFTNNLQTGIPSRFSGSGSGTDYTLTISSLQPEDVATYFCFQYNSGWTFGGGTKLELKRTVAAPSVFIFPPSDEQLKSGTASVVCLLNNFYPREAKVQWKVDNALQSGNSQESVTEQDSKDSTYSLSSTLTLSKADYEKHKVYACEVTHQGLSSPVTKSFNRGEC
notes: also called chimeric 9B3
- % inhibition at 20 nM, HEK293 ST2 NFkB [1]: 35%
- Kd [2]: 0.457 nM
- Kd [3]: 0.836 nM
- % inhibition 0.1 nM Ab, HEK293 ST2 NFkB [5]: 52.5%
- % inhibition 1 nM Ab, HEK293 ST2 NFkB [5]: 96%
- % inhibition 10 nM Ab, HEK293 ST2 NFkB [5]: 111%

B3: 9B3 chimera/hu J (antibody, human IgG1, kappa)
heavy: EVQLVETGGGLVQPGRSLKLSCVASGFTFSNYWMYWIRQAPGMGLEWVSSINNDGGNTYYLDSVKGRFTISRNNAENTVYLQMNSLRSEDTATYYCAKGHYSYSSYSFSYWGQGTLVTVSSASTKGPSVFPLAPSSKSTSGGTAALGCLVKDYFPEPVTVSWNSGALTSGVHTFPAVLQSSGLYSLSSVVTVPSSSLGTQTYICNVNHKPSNTKVDKKVEPKSCDKTHTCPPCPAPEAAGAPSVFLFPPKPKDTLMISRTPEVTCVVVDVSHEDPEVKFNWYVDGVEVHNAKTKPREEQYNSTYRVVSVLTVLHQDWLNGKEYKCKVSNKALPAPIEKTISKAKGQPREPQVYTLPPSREEMTKNQVSLTCLVKGFYPSDIAVEWESNGQPENNYKTTPPVLDSDGSFFLYSKLTVDKSRWQQGNVFSCSVMHEALHNHYTQKSLSLSPGK
light: DIQMTQSPSVLSASVGDRVTLSCKASHNINKHLDWCQQKVGEAPKLLIYFTNNLQTGIPSRFSGSGSGTDYTLTISSLQPEDVATYFCFQYNSGWTFGQGTKVEIKRTVAAPSVFIFPPSDEQLKSGTASVVCLLNNFYPREAKVQWKVDNALQSGNSQESVTEQDSKDSTYSLSSTLTLSKADYEKHKVYACEVTHQGLSSPVTKSFNRGEC
notes: also called 9B3 chimera huJseg
- IC50, HEK293 ST2 NFkB [6]: 0.264 nM
- IC50, HEK293 ST2 NFkB [4]: 0.056 nM
- koff [7]: 0.000451 s⁻¹
- estimated IC50, HEK293 ST2 NFkB [8]: 0.061 nM

B4: IL33-11 (antibody, human IgG1, kappa, V domains shown)
VH: EVQLVESGGGLVQPGGSLRLSCAASGFTFSNYWMYWVRQAPGKGLEWVASITPNGGNTYYPDSVKGRFTISRDNAKNSLYLQMNSLRAEDTAVYYCARGHYYYTSYSLGYWGQGTLVTVSS
VL: DIQMTQSPSSLSASVGDRVTITCKASQNINKHLDWYQQKPGKAPKLLIYFTNNLQTGVPSRFSGSGSGTDFTLTISSLQPEDFATYYCFQYNNGWTFGGGTKVEIKR
- IC50, HEK293 ST2 NFkB [6]: 0.09 nM
- IC50, HEK293 ST2 NFkB [9]: 0.204 nM

B5: IL33-13 (antibody, human IgG1, kappa, V domains shown)
VH: EVQLVESGGGLVQPGGSLRLSCAASGFTFSSYWMYWVRQAPGKGLEWVASITPNGGNTYYPDSVKGRFTISRDNAKNSLYLQMNSLRAEDTAVYYCARGHYSYSSYSFSYWGQGTLVTVSS
VL: DIQMTQSPSSLSASVGDRVTITCKASQNINKHLDWYQQKPGKAPKLLIYFTNNLQTGVPSRFSGSGSGTDFTLTISSLQPEDFATYYCFQYNNGWTFGGGTKVEIKR
- IC50, HEK293 ST2 NFkB [6]: 0.22 nM
- IC50, HEK293 ST2 NFkB [9]: 7.65 nM

B6: 12F9 chimera (antibody, human IgG1, kappa, V domains shown)
VH: EVQLVESGGDLVQPGRSLKLSCVTSGFIFKNYWMTWIRQVPGKGLEWVASITNTGGATYYPDSVKGRFTISRDNSENTLYLQMNSLRSEDTATYYCARDRRYNSGSPFAYWGQGTLVTVSS
VL: DIQLTQSPSTLAASLGERVTISCRASQSISNSLIWFQQKPDGTIKRLIYSSSTLESGVPSRFSGSGSGTDYSLSISSLESEDFAMYYCLQYATYPWTFGGGTKLELRR
notes: also called chimeric 12F9
- % inhibition at 20 nM, HEK293 ST2 NFkB [1]: 3.6%
- Kd [2]: 0.408 nM
- binding result [3]: no binding (tested: 125 nM)
- IC50, HEK293 ST2 NFkB [4]: 2.71 nM
- % inhibition 0.1 nM Ab, HEK293 ST2 NFkB [5]: 44.3%
- % inhibition 1 nM Ab, HEK293 ST2 NFkB [5]: 82.6%
- % inhibition 10 nM Ab, HEK293 ST2 NFkB [5]: 104%

B7: 30B11 chimera/hu J (antibody, human IgG1, kappa, V domains shown)
VH: QVKLLQSGAALVKPGASVKMSCATSGFSFTDYWVSWVKQSHGKGLEWIGEIYPNSGADNFNENFKGKATLTVDKSTSTAYMELSRLTSEDSAIYYCTRGPYYYSTQIIFAYWGQGTLVTVSS
VL: NIVMTQSPKSMSISVGDRVTMNCKASQNVGNNLAWYQQKPGQSPKLLIYYASNRYTGVPDRFTGGGYGTDFTLTINSVQAEDAAFYYCQRIYNSPPTFGGGTKVEIKR
notes: also called 30B11 hu Jseg
- IC50, HEK293 ST2 NFkB [1]: 0.11 nM
- Kd [2]: 0.367 nM
- Kd [3]: 0.148 nM
- IC50, HEK293 ST2 NFkB [4]: 0.028 nM
- % inhibition 0.1 nM Ab, HEK293 ST2 NFkB [5]: 102%
- % inhibition 1 nM Ab, HEK293 ST2 NFkB [5]: 109%
- % inhibition 10 nM Ab, HEK293 ST2 NFkB [5]: 110%

B8: 30A1 chimera (antibody, human IgG1, kappa)
heavy: QVNLLQSGATLVKPGASMKMSCKASGYSFTDYWVSWVKQSHGKSLEWIGEIYPNSGANNFNKEFKDKATLTVDKSTSTAYMELTRLTSEDSAVYYCTRGPYYYSSQIIFAYWGQGTLVTVSSASTKGPSVFPLAPSSKSTSGGTAALGCLVKDYFPEPVTVSWNSGALTSGVHTFPAVLQSSGLYSLSSVVTVPSSSLGTQTYICNVNHKPSNTKVDKKVEPKSCDKTHTCPPCPAPEAAGAPSVFLFPPKPKDTLMISRTPEVTCVVVDVSHEDPEVKFNWYVDGVEVHNAKTKPREEQYNSTYRVVSVLTVLHQDWLNGKEYKCKVSNKALPAPIEKTISKAKGQPREPQVYTLPPSREEMTKNQVSLTCLVKGFYPSDIAVEWESNGQPENNYKTTPPVLDSDGSFFLYSKLTVDKSRWQQGNVFSCSVMHEALHNHYTQKSLSLSPGK
light: IIVMTQSPKSMSISVGDRVTMNCKASQNVGNNIAWYRQKPGQSPELLIYYASNRYTGVPDRFTGGGYGTDFTLTINSVQAEDAAFYYCQRIYNSPPTFGGGTKVELKRTVAAPSVFIFPPSDEQLKSGTASVVCLLNNFYPREAKVQWKVDNALQSGNSQESVTEQDSKDSTYSLSSTLTLSKADYEKHKVYACEVTHQGLSSPVTKSFNRGEC
- IC50, HEK293 ST2 NFkB [4]: 0.27 nM

B9: 30A1 chimera/hu J (antibody, human IgG1, kappa)
heavy: QVNLLQSGATLVKPGASMKMSCKASGYSFTDYWVSWVKQSHGKSLEWIGEIYPNSGANNFNKEFKDKATLTVDKSTSTAYMELTRLTSEDSAVYYCTRGPYYYSSQIIFAYWGQGTLVTVSSASTKGPSVFPLAPSSKSTSGGTAALGCLVKDYFPEPVTVSWNSGALTSGVHTFPAVLQSSGLYSLSSVVTVPSSSLGTQTYICNVNHKPSNTKVDKKVEPKSCDKTHTCPPCPAPEAAGAPSVFLFPPKPKDTLMISRTPEVTCVVVDVSHEDPEVKFNWYVDGVEVHNAKTKPREEQYNSTYRVVSVLTVLHQDWLNGKEYKCKVSNKALPAPIEKTISKAKGQPREPQVYTLPPSREEMTKNQVSLTCLVKGFYPSDIAVEWESNGQPENNYKTTPPVLDSDGSFFLYSKLTVDKSRWQQGNVFSCSVMHEALHNHYTQKSLSLSPGK
light: IIVMTQSPKSMSISVGDRVTMNCKASQNVGNNIAWYRQKPGQSPELLIYYASNRYTGVPDRFTGGGYGTDFTLTINSVQAEDAAFYYCQRIYNSPPTFGGGTKVEIKRTVAAPSVFIFPPSDEQLKSGTASVVCLLNNFYPREAKVQWKVDNALQSGNSQESVTEQDSKDSTYSLSSTLTLSKADYEKHKVYACEVTHQGLSSPVTKSFNRGEC
notes: also called 30A1 hu Jseg
- Kd [2]: 0.54 nM
- Kd [3]: 0.197 nM
- % inhibition 0.1 nM Ab, HEK293 ST2 NFkB [5]: 63.8%
- % inhibition 1 nM Ab, HEK293 ST2 NFkB [5]: 98.5%
- % inhibition 10 nM Ab, HEK293 ST2 NFkB [5]: 107%
